B1: mRNA-splicing (parent)
chain: AGUUGCUGCUGGGAGCUCCAGCACAGUGAAAUGGACAGAAGGGCAGAGCAA

Variants of: B1
Test: exon inclusion enrichment index; higher = more inclusion; WT1 exon 5 minigene, HEK293

Variant | exon inclusion enrichment index
C6G U7A C9A U10A | 0.321
C6G U7A C9A U10C | 0.641
C6A U7C C9A U10C G42C G43A | 3.52
C6A U7C C9A U10C G42C G43C | 3.4
C6A U7C C9A U10C G42C G43U | 3.6
C6A U7C C9A U10C G42A G43C | 4.49
C6A U7C C9A U10C G42A G43U | 4.39
C6A U7C C9A U10C G42A G43A | 4.69
G13A | 0.135
G13C | 0.0504
G13U | 0.0154
C6A U7C C9A U10C G38A | 2.2
C6A U7C C9A U10C G38C | 2.15
C6A U7C C9A U10C G38U | 1.44
U10A | 0.633
U10G | 1.82
U10C | 2.72
U7C G8A U10A | 0.437
U7C G8A U10C | 2.58
U7C | 0.538
U7A | 0.394
U7G | 0.183
C6A U7C C9A U10C G38A A39U | 0.332
C6A U7C C9A U10C G38A A39G | 2.68

Variant | exon inclusion enrichment index
C6A U7C C9A U10C G38A A39C | 2.55
C16G U17C | 0.114
C16G U17G | 0.0697
C16G U17A | 0.231
C6A U7C C9A U10G G11U | 2.09
C6A U7C C9A U10G G11A | 2.06
C6A U7C C9A U10G G11C | 2.72
G12U | 0.925
G12A | 1.7
G12C | 1.58
C9A U10C | 2.65
C9A U10A | 0.914
C9A U10G | 0.829
C6A U7C G8U C9G U10C | 1.91
G15A C16U | 0.014
G15A C16G | 0.0571
G15A C16A | 0.03
C9U U10G | 0.493
C9U U10C | 2.55
C9U U10A | 0.0452
C6A U7C C9A U10C G34A A35C | 2.52
C6A U7C C9A U10C G34A A35U | 1.68
C6A U7C C9A U10C G34A A35G | 2.05
C6A U7C C9A U10C G34U A35G | 1.29

Variant | exon inclusion enrichment index
C6A U7C C9A U10C G34U A35C | 1.5
C6A U7C C9A U10C G34U A35U | 1.33
C6A U7C C9A U10C U32C G33U | 2.94
C6A U7C C9A U10C U32C G33C | 4
C6A U7C C9A U10C U32C G33A | 2.3
C6A U7G C9A | 0.123
G11U G12U | 0.755
G11U G12C | 1.86
G11U G12A | 0.315
C6A U7C C9A U10C U27C G28A | 3.15
C6A U7C C9A U10C U27C G28U | 2.92
C6A U7C C9A U10C U27C G28C | 3.85
C6A U7C C9A U10C G43A | 4.63
C6A U7C C9A U10C G43U | 2.81
C6A U7C C9A U10C G43C | 3.07
C6U U7G C9A U10C | 1.45
C6U U7G C9A U10A | 0.189
C6A U7G C9A U10C | 0.53
C6A U7G C9A U10A | 0.108
C6G U7G C9A U10A | 0.0539
C6G U7G C9A U10C | 0.246
C6A U7C C9A U10C U27A | 3.6
C6A U7C C9A U10C U27G | 2.01
C6A U7C C9A U10C U27C | 5.2

Variant | exon inclusion enrichment index
C6A U7C C9A U10C U32G G33C | 3.23
C6A U7C C9A U10C U32G G33U | 1.91
C6A U7C C9A U10C U32G G33A | 1.61
A14U G15A | 0.0161
A14U G15U | 0.0223
A14U G15C | 0.0264
C6G G8U C9U | 0.101
C6A U7C C9A U10C U17A C18G | 2.68
C6A U7C C9A U10C U17A C18U | 2.9
C6A U7C C9A U10C U17A C18A | 3.1
C6A U7C C9G U10G | 0.132
C6A U7C C9G U10A | 1.39
C6A U7C C9G U10C | 2.55
G11A G12A | 0.676
G11A G12C | 1.9
G11A G12U | 0.888
G8C C9G | 0.884
G8C C9U | 0.216
G8C C9A | 0.365
C6A U7C C9U U10G | 0.298
C6A U7C C9U U10C | 2.52
C6A U7C C9U U10A | 0.0495
U7G C9A U10A | 1
U7G C9A U10C | 2

Variant | exon inclusion enrichment index
C6A U7C C9A U10C G42U G43A | 3.84
C6A U7C C9A U10C G42U G43C | 2.05
C6A U7C C9A U10C G42U G43U | 3.65
G12U G13U | 0.199
G12U G13C | 0.721
G12U G13A | 0.608
G13C A14C | 0.19
G13C A14G | 0.42
G13C A14U | 0.194
U10G G11A | 2.34
U10G G11C | 2.98
U10G G11U | 2.4
C6A U7G G8C C9A U10C | 0.907
C6A U7G G8C C9A U10A | 0.124
C6G C9A U10A | 0.229
C6G C9A U10C | 1.01
C6A U7C C9A U10C G41C G42C | 3.48
C6A U7C C9A U10C G41C G42U | 3.52
C6A U7C C9A U10C G41C G42A | 2.74
G8A C9U | 0.355
G8A C9G | 0.0723
G8A C9A | 0.383
C6A U7C G8U C9U U10C | 2.41
C6G U7A G8U C9A | 0.349

Variant | exon inclusion enrichment index
U7C C9A U10A | 1.64
U7C C9A U10C | 3.46
G15U C16U | 0.0329
G15U C16A | 0.0156
G15U C16G | 0.0648
C6A U7C G8U U10C | 2.98
U7A C9A U10C | 1.94
U7A C9A U10A | 0.589
G12A G13U | 0.459
G12A G13A | 1.29
G12A G13C | 1.2
C6A U7C G8A U10C | 2.3
C6A U7C G8A U10A | 0.127
C6A U7C C9A U10C G38C A39G | 2.65
C6A U7C C9A U10C G38C A39U | 0.489
C6A U7C C9A U10C G38C A39C | 3
C6A U7C C9A U10C U17C C18U | 3.39
C6A U7C C9A U10C U17C C18A | 3.17
C6A U7C C9A U10C U17C C18G | 3.74
C6A U7C C9A U10C U27G G28A | 3.19
C6A U7C C9A U10C U27G G28C | 2.4
C6A U7C C9A U10C U27G G28U | 0.0137
C6A U7G G8A C9A U10C | 0.734
C6A U7G G8A C9A U10A | 0.0362

Variant | exon inclusion enrichment index
G11C G12A | 0.472
G11C G12C | 1.58
G11C G12U | 0.467
C6U U7A | 0.0485
C6U U7C | 0.178
C6U U7G | 0.0137
G15U | 0.0812
G15A | 0.048
G15C | 0.187
C6U U7G C9A | 0.522
A14G G15U | 0.0597
A14G G15C | 0.0893
A14G G15A | 0.102
U7C U10C | 2.76
C6G G8C C9U U10C | 0.97
G13U A14U | 0.0193
G13U A14G | 0.0891
G13U A14C | 0.0646
C6A U7C C9U | 1.42
C6A U7C C9G | 1.05
C6A U7C C9A U10C G46U A47G | 2.8
C6A U7C C9A U10C G46U A47U | 3.03
C6A U7C C9A U10C G46U A47C | 3.45

From the RNAGym collection of RNA variant scans (doi:10.1101/gr.219683.116)
